Results: PMC3014015, “Structural Insights into Substrate Specificity in Variants of N-Acetylneuraminic Acid Lyase Produced by Directed Evolution” (Journal of Molecular Biology, 2010)

Legend:
[1] = molecular target: T1, N-acetylneuraminic acid lyase (Escherichia coli, UniProt P0A6L4, E192Q); test: steady-state kinetics (Km), coupled lactate dehydrogenase/NADH assay; format: biochemical; conditions: read-out: Neu5Ac / Km
T1 construct: gene nanA; hexa-His-tagged protein
T1 sequence (P0A6L4 2-297 E192Q): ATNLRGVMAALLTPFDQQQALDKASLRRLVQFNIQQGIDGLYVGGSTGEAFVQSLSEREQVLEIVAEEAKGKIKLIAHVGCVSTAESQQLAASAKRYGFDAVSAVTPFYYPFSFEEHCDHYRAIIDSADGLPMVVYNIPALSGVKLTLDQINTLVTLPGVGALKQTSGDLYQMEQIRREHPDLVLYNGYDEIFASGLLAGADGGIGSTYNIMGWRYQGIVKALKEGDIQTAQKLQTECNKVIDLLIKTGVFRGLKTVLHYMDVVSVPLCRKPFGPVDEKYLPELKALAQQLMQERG

[2] = system: T2, CCCN(CCC)C(=O)[C@H](O)[C@H](O)C(O)CC(=O)C(=O)O; test: as above; format: biochemical, Escherichia coli
T2 construct: hexa-His-tagged protein

[3] = molecular target: T3, N-acetylneuraminic acid lyase (Escherichia coli, UniProt P0A6L4, E192N); test: coupled cleavage assay of purified enzyme; crystal soaking gave only the cleavage product pyruvate; format: biochemical
T3 construct: gene nanA; hexa-His-tagged protein
T3 sequence (P0A6L4 2-297 E192N): T1 sequence (P0A6L4 2-297 E192Q)

[4] = molecular target: E192N variant of Escherichia coli N-acetylneuraminic acid lyase (Escherichia coli); test: crystal structure; space group P2_(1), four crystallographically independent subunits (tetramer); crystals grown at 4 °C by sitting drop in 100 mM Tris-HCl pH 8.0-8.30, 200 mM NaCl, 18% (wt/vol) PEG 3350; some crystals soaked with 100 mM pyruvate and 70 mM THB

Row | stoichiometry N [4] | Molecule | Km [1] [µM] | Km [2] [µM] | kcat [2] [s⁻¹] | kcat/Km [2] [M⁻¹ s⁻¹] | coupled cleavage assay of purified enzyme; crystal soaking gave only the cleavag [3]
1 | – | N-Acetylneuraminic acid [Neu5Ac] | 3500 ± 500 | – | – | – | –
2 | – | N-acetylneuraminic acid lyase (Escherichia coli K-12; E192Q) | – | 700 ± 50 | 2.83 ± 0.0667 | 4170 | –
3 | – | N-acetylneuraminic acid lyase (Escherichia coli K-12; E192P) | – | 200 ± 20 | 0.817 ± 0.0167 | 4330 | –
4 | – | N-acetylneuraminic acid lyase (Escherichia coli K-12; E192M) | – | 200 ± 30 | 1.17 ± 0.05 | 5330 | –
5 | – | CCCN(CCC)C(=O)[C@H](O)[C@H](O)C(O)CC(=O)C(=O)O (stereo partly drawn) [DPAH, (5R,6R)-7-(dipropylamino)-4,5,6-trihydroxy-2,7-dioxoheptanoic acid] | – | – | – | – | confirmed that the E192N enzyme had the highest activity for DPAH
6 | 4 | E192N variant of Escherichia coli N-acetylneuraminic acid lyase (enzyme) | – | – | – | – | –
7 | – | N-acetylneuraminic acid lyase (Escherichia coli K-12; E192F) | – | 300 ± 20 | 1.47 ± 0.0333 | 5170 | –
